The source of these data is patent US20090264360A1.

In this test the target is lamprey GnRH receptor (sea lamprey (Petromyzon marinus)). Description: cell-based or functional assay.

“lamprey GnRH-III (from UniProt P30948 1-10) (peptide)”: the fold difference of EC50 against lamprey GnRH-I (IP and cAMP) (fold lower than lamprey GnRH-I) was in the range of 40 to 50.
